Results: publication PMC9482650, “Quantitative fragmentomics allow affinity mapping of interactomes” (Nature Communications, 2022)

T1: ARHGAP21, Q5T5U3
T1 sequence (Q5T5U3 45-169, limits assumed, looked up): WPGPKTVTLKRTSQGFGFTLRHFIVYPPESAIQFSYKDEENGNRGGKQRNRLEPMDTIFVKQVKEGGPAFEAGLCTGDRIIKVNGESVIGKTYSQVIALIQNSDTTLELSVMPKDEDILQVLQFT

T2: DFNB31_2, Q9P202
T2 sequence (Q9P202 274-371, limits assumed, looked up): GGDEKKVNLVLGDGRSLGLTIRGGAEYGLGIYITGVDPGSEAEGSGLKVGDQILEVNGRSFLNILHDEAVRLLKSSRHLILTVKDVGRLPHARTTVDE

T3: DFNB31_3, Q9P202
T3 sequence (Q9P202 811-907, limits assumed, looked up): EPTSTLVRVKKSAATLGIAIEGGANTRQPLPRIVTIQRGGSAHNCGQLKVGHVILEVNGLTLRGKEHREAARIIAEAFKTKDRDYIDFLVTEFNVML

T4: DLG3_2, Q92796
T4 sequence (Q92796 221-321, limits assumed, looked up): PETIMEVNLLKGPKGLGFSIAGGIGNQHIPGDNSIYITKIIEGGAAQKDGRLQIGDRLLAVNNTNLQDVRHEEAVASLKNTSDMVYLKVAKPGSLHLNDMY

T5: GRIP1_4, Q9Y3R0
T5 sequence (Q9Y3R0 467-571, limits assumed, looked up): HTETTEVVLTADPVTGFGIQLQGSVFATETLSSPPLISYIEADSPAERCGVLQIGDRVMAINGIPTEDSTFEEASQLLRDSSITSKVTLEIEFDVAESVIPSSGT

T6: MPDZ_10, O75970
T6 sequence (O75970 1624-1722, limits assumed, looked up): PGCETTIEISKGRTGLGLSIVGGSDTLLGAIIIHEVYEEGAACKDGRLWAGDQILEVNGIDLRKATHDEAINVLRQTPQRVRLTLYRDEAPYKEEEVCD

T7: MPDZ_12, O75970
T7 sequence (O75970 1857-1958, limits assumed, looked up): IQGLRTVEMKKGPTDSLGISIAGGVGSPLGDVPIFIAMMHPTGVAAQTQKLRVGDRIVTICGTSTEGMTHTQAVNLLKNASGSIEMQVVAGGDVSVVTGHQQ

T8: MPDZ_5, O75970
T8 sequence (O75970 695-796, limits assumed, looked up): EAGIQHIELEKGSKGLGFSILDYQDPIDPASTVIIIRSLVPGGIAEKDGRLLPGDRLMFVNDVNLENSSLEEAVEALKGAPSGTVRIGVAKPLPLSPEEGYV

T9: MPP7, Q5T2T1
T9 sequence (Q5T2T1 134-230, limits assumed, looked up): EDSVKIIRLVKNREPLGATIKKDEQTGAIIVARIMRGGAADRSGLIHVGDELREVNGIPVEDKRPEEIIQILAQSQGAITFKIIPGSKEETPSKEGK

T10: PDZD2_2, O15018
T10 sequence (O15018 329-429, limits assumed, looked up): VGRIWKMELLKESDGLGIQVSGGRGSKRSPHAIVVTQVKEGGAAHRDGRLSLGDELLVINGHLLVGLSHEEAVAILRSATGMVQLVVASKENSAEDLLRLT

T11: PDZRN3_1, Q9UPQ7
T11 sequence (Q9UPQ7 244-349, limits assumed, looked up): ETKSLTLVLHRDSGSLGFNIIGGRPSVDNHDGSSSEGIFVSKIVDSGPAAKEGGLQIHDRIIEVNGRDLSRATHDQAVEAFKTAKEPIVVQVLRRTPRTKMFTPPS

T12: SNTA1, Q13424
T12 sequence (Q13424 82-180, limits assumed, looked up): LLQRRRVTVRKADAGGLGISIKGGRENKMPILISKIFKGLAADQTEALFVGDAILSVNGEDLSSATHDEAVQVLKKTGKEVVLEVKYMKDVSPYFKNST

T13: TX1BP3, O14907
T13 sequence (O14907 10-122, limits assumed, looked up): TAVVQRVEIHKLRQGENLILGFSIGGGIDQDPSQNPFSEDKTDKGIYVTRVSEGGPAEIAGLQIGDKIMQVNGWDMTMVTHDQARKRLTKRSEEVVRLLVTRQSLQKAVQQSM


Target: T1, ARHGAP21, Q5T5U3
Assay: holdup assay
Design: key: below the threshold = too weak to quantify, mostly under pKd 3.1 to 4
Settings: plain residues with an end cap or a label only (N-terminal biotin on a linker: ado-ado)

pKd | Binder
4.04 | TNSRHGETTV [FZD2, Q14332]

Target: T2, DFNB31_2, Q9P202
Assay: holdup assay
Design: key: below the threshold = too weak to quantify, mostly under pKd 3.1 to 4
Settings: plain residues with an end cap or a label only (N-terminal biotin on a linker: ado-ado)

pKd | Binder
below the threshold | TNSRHGETTV [FZD2, Q14332]

Target: T3, DFNB31_3, Q9P202
Assay: holdup assay
Design: key: below the threshold = too weak to quantify, mostly under pKd 3.1 to 4
Settings: plain residues with an end cap or a label only (N-terminal biotin on a linker: ado-ado)

pKd | Binder
below the threshold | TNSRHGETTV [FZD2, Q14332]

Target: T4, DLG3_2, Q92796
Assay: holdup assay
Design: key: below the threshold = too weak to quantify, mostly under pKd 3.1 to 4
Settings: plain residues with an end cap or a label only (N-terminal biotin on a linker: ado-ado)

pKd | Binder
4.72 | TNSRHGETTV [FZD2, Q14332]

Target: FRMPD3, Q5JV73
Sequence (Q5JV73 12-100): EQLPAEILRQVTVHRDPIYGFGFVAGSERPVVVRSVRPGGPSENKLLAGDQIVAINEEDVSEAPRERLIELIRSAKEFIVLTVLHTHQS
Assay: holdup assay
Design: key: below the threshold = too weak to quantify, mostly under pKd 3.1 to 4
Settings: plain residues with an end cap or a label only (N-terminal biotin on a linker: ado-ado)

pKd | Binder
below the threshold | TNSRHGETTV [FZD2, Q14332]

Target: T5, GRIP1_4, Q9Y3R0
Assay: holdup assay
Design: key: below the threshold = too weak to quantify, mostly under pKd 3.1 to 4
Settings: plain residues with an end cap or a label only (N-terminal biotin on a linker: ado-ado)

pKd | Binder
below the threshold | TNSRHGETTV [FZD2, Q14332]

Target: GRIP2_6, Q9C0E4
Sequence (Q9C0E4 648-740): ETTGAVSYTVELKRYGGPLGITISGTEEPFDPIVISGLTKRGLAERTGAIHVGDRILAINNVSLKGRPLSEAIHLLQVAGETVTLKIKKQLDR
Assay: holdup assay
Design: key: below the threshold = too weak to quantify, mostly under pKd 3.1 to 4
Settings: plain residues with an end cap or a label only (N-terminal biotin on a linker: ado-ado)

pKd | Binder
below the threshold | TNSRHGETTV [FZD2, Q14332]

Target: HTRA1, Q92743
Sequence (Q92743 360-477): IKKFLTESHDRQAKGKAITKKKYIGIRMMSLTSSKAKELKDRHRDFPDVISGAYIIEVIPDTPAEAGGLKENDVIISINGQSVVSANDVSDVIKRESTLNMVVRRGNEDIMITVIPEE
Assay: holdup assay
Design: key: below the threshold = too weak to quantify, mostly under pKd 3.1 to 4
Settings: plain residues with an end cap or a label only (N-terminal biotin on a linker: ado-ado)

pKd | Binder
4.41 | TNSRHGETTV [FZD2, Q14332]

Target: IL16_1, Q14005
Sequence (Q14005 210-306): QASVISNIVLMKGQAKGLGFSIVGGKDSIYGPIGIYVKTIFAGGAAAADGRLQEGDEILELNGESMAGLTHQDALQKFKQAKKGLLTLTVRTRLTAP
Assay: holdup assay
Design: key: below the threshold = too weak to quantify, mostly under pKd 3.1 to 4
Settings: plain residues with an end cap or a label only (N-terminal biotin on a linker: ado-ado)

pKd | Binder
3.76 | TNSRHGETTV [FZD2, Q14332]

Target: Inadl_3, Q8NI35
Sequence (Q8NI35 359-469): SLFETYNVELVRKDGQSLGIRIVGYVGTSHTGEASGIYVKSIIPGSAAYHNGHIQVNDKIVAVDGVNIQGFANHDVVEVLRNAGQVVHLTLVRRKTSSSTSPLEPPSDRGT
Assay: holdup assay
Design: key: below the threshold = too weak to quantify, mostly under pKd 3.1 to 4
Settings: plain residues with an end cap or a label only (N-terminal biotin on a linker: ado-ado)

pKd | Binder
3.51 | TNSRHGETTV [FZD2, Q14332]

Target: Inadl_4, Q8NI35
Sequence (Q8NI35 547-651): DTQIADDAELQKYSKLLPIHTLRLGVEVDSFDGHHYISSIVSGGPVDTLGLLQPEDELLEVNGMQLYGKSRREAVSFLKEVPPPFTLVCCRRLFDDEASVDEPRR
Assay: holdup assay
Design: key: below the threshold = too weak to quantify, mostly under pKd 3.1 to 4
Settings: plain residues with an end cap or a label only (N-terminal biotin on a linker: ado-ado)

pKd | Binder
below the threshold | TNSRHGETTV [FZD2, Q14332]

Target: LIMK2, P53671
Sequence (P53671 143-248): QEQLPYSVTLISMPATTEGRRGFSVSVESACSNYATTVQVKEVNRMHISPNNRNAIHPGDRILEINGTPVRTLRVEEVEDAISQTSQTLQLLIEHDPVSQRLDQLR
Assay: holdup assay
Design: key: below the threshold = too weak to quantify, mostly under pKd 3.1 to 4
Settings: plain residues with an end cap or a label only (N-terminal biotin on a linker: ado-ado)

pKd | Binder
below the threshold | TNSRHGETTV [FZD2, Q14332]

Target: MAGI2_2, Q86UL8
Sequence (Q86UL8 410-522): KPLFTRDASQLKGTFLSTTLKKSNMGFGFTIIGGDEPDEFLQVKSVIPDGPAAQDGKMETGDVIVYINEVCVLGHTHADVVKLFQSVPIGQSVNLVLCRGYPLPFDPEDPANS
Assay: holdup assay
Design: key: below the threshold = too weak to quantify, mostly under pKd 3.1 to 4
Settings: plain residues with an end cap or a label only (N-terminal biotin on a linker: ado-ado)

pKd | Binder
4.59 | TNSRHGETTV [FZD2, Q14332]

Target: MAGI3_2, Q5TCQ9
Sequence (Q5TCQ9 398-503): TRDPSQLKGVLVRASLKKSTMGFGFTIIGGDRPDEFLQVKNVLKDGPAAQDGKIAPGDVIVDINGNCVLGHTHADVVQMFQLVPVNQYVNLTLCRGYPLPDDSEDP
Assay: holdup assay
Design: key: below the threshold = too weak to quantify, mostly under pKd 3.1 to 4
Settings: plain residues with an end cap or a label only (N-terminal biotin on a linker: ado-ado)

pKd | Binder
5.11 | TNSRHGETTV [FZD2, Q14332]

Target: T6, MPDZ_10, O75970
Assay: holdup assay
Design: key: below the threshold = too weak to quantify, mostly under pKd 3.1 to 4
Settings: plain residues with an end cap or a label only (N-terminal biotin on a linker: ado-ado)

pKd | Binder
below the threshold | TNSRHGETTV [FZD2, Q14332]

Target: T7, MPDZ_12, O75970
Assay: holdup assay
Design: key: below the threshold = too weak to quantify, mostly under pKd 3.1 to 4
Settings: plain residues with an end cap or a label only (N-terminal biotin on a linker: ado-ado)

pKd | Binder
below the threshold | TNSRHGETTV [FZD2, Q14332]

Target: T8, MPDZ_5, O75970
Assay: holdup assay
Design: key: below the threshold = too weak to quantify, mostly under pKd 3.1 to 4
Settings: plain residues with an end cap or a label only (N-terminal biotin on a linker: ado-ado)

pKd | Binder
below the threshold | TNSRHGETTV [FZD2, Q14332]

Target: T9, MPP7, Q5T2T1
Assay: holdup assay
Design: key: below the threshold = too weak to quantify, mostly under pKd 3.1 to 4
Settings: plain residues with an end cap or a label only (N-terminal biotin on a linker: ado-ado)

pKd | Binder
below the threshold | TNSRHGETTV [FZD2, Q14332]

Target: PDLIM1, O00151
Sequence (O00151 1-87): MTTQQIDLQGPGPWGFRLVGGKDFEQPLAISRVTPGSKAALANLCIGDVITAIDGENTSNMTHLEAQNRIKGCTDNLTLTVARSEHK
Assay: holdup assay
Design: key: below the threshold = too weak to quantify, mostly under pKd 3.1 to 4
Settings: plain residues with an end cap or a label only (N-terminal biotin on a linker: ado-ado)

pKd | Binder
below the threshold | TNSRHGETTV [FZD2, Q14332]

Target: T10, PDZD2_2, O15018
Assay: holdup assay
Design: key: below the threshold = too weak to quantify, mostly under pKd 3.1 to 4
Settings: plain residues with an end cap or a label only (N-terminal biotin on a linker: ado-ado)

pKd | Binder
4.18 | TNSRHGETTV [FZD2, Q14332]

Target: T11, PDZRN3_1, Q9UPQ7
Assay: holdup assay
Design: key: below the threshold = too weak to quantify, mostly under pKd 3.1 to 4
Settings: plain residues with an end cap or a label only (N-terminal biotin on a linker: ado-ado)

pKd | Binder
3.99 | TNSRHGETTV [FZD2, Q14332]

Target: T12, SNTA1, Q13424
Assay: holdup assay
Design: key: below the threshold = too weak to quantify, mostly under pKd 3.1 to 4
Settings: plain residues with an end cap or a label only (N-terminal biotin on a linker: ado-ado)

pKd | Binder
4.64 | TNSRHGETTV [FZD2, Q14332]

Target: TJP1_2, Q07157
Sequence (Q07157 181-274): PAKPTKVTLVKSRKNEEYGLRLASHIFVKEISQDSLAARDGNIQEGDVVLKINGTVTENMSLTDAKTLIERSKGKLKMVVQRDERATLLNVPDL
Assay: holdup assay
Design: key: below the threshold = too weak to quantify, mostly under pKd 3.1 to 4
Settings: plain residues with an end cap or a label only (N-terminal biotin on a linker: ado-ado)

pKd | Binder
below the threshold | TNSRHGETTV [FZD2, Q14332]

Target: T13, TX1BP3, O14907
Assay: holdup assay
Design: key: below the threshold = too weak to quantify, mostly under pKd 3.1 to 4
Settings: plain residues with an end cap or a label only (N-terminal biotin on a linker: ado-ado)

pKd | Binder
3.68 | TNSRHGETTV [FZD2, Q14332]
